Measurements published in patent US20220378887A1 (GENOIMMUNE THERAPEUTICS, published 2022).

B1: STIDESPIFK polypeptide (GLCE; SEQ ID NO: 7) (peptide)
peptide: STIDESPIFK
notes: Synthesized mutant neoantigen peptide; also called high-frequency mutant polypeptide
B2: VVVGAGDVGK polypeptide (KRAS; SEQ ID NO: 15) (peptide)
peptide: VVVGAGDVGK
notes: Synthesized mutant KRAS neoantigen peptide; also called high-frequency mutant polypeptide
B3: TTAPFLSGK polypeptide (CTNNB1; SEQ ID NO: 9) (peptide)
peptide: TTAPFLSGK
notes: as for B1
B4: RTIEQLTLK polypeptide (ARHGEF11; SEQ ID NO: 8) (peptide)
peptide: RTIEQLTLK
notes: as for B1

molecular target: T1, HLA-A*11:01 (MHC-I molecules on the surfaces of T2 cells) (human); assay: T2 cell MHC-I stabilisation assay, flow cytometry with FITC anti-HLA-A*11:01 antibody
T1 construct: It only names the antibody against 'the corresponding HLA typing (HLA-A*11:01)'; also called HLA molecules

Point of comparison: B2, “FI (fluorescence index)” value 1.66. Against it:
- B1 — higher, 4.09
- B3 — lower, 1.02
- B4 — lower, 1.57
